Holding throughout (test): pull-down; MagStrep (streptavidin) magnetic beads sediment biotin-lipid proteoliposomes with MexB or MexAB; OprM in separate proteoliposomes; non-energized: 25 mM Hepes pH7, 100 mM K2SO4, 2 mM MgSO4; 20 min at room temperature; pellets on SDS-PAGE, Coomassie
Common to all, as to conditions: both partners purified

In assay [1] the target is T1, MexB (Pseudomonas aeruginosa, UniProt P52002 1-1046).
T1 construct: MexB, RND inner membrane transporter of the MexA-MexB-OprM efflux pump, Pseudomonas aeruginosa; Purified by the protocol of Mokhonov et al., 2005 with minor modifications; also called MexB alone; RND pump
T1 sequence: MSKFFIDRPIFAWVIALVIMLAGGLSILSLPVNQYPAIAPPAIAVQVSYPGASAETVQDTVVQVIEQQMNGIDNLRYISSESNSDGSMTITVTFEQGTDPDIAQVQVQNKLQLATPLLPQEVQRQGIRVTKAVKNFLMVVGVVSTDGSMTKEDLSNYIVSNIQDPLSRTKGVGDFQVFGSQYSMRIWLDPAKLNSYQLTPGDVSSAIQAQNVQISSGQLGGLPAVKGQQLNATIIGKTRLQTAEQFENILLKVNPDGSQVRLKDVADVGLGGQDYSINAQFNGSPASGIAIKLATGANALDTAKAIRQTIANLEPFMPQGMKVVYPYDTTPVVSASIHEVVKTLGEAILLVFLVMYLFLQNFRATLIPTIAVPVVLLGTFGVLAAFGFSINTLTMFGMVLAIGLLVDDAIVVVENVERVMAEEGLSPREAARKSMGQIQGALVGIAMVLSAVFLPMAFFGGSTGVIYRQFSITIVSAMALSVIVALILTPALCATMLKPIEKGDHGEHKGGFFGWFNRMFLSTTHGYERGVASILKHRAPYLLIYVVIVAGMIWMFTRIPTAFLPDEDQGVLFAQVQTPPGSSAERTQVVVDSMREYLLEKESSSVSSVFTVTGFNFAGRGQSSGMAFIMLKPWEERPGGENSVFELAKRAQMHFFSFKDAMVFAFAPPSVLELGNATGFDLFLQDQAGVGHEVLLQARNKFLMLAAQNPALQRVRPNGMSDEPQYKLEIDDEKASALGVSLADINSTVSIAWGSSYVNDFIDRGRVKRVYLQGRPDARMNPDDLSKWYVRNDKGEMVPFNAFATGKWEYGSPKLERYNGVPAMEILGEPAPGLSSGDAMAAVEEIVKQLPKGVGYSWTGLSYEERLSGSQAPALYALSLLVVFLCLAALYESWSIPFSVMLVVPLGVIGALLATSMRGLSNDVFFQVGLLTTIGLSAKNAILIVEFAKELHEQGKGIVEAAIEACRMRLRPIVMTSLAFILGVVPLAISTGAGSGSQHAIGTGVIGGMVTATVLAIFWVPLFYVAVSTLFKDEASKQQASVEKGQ

For assay [2], the target named is T2, MexAB: MexA (palmitoylated) and MexB reconstituted together in biotinylated proteoliposomes (Pseudomonas aeruginosa, UniProt P52477 24-383; P52002 1-1046, palmitoylated (lipid anchor); residue not stated).
T2 construct: MexA, Pseudomonas aeruginosa, palmitoylated version; as m1; MexB, Pseudomonas aeruginosa; as m3; also called MexAB proteoliposomes; MexA and MexB; source: each protein from C43 ΔAcrB strain, purified; reconstituted together in proteoliposomes with biotinylated lipids
T2 sequence 1: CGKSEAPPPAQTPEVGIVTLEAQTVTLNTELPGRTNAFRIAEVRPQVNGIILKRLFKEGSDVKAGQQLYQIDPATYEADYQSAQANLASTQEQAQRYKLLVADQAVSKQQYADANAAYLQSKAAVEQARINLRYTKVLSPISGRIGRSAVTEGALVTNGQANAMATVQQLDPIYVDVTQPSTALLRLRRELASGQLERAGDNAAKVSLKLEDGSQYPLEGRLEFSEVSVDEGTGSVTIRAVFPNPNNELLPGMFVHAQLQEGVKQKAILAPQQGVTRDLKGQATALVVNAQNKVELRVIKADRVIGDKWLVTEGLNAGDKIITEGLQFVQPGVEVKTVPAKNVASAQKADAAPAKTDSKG
T2 sequence 2: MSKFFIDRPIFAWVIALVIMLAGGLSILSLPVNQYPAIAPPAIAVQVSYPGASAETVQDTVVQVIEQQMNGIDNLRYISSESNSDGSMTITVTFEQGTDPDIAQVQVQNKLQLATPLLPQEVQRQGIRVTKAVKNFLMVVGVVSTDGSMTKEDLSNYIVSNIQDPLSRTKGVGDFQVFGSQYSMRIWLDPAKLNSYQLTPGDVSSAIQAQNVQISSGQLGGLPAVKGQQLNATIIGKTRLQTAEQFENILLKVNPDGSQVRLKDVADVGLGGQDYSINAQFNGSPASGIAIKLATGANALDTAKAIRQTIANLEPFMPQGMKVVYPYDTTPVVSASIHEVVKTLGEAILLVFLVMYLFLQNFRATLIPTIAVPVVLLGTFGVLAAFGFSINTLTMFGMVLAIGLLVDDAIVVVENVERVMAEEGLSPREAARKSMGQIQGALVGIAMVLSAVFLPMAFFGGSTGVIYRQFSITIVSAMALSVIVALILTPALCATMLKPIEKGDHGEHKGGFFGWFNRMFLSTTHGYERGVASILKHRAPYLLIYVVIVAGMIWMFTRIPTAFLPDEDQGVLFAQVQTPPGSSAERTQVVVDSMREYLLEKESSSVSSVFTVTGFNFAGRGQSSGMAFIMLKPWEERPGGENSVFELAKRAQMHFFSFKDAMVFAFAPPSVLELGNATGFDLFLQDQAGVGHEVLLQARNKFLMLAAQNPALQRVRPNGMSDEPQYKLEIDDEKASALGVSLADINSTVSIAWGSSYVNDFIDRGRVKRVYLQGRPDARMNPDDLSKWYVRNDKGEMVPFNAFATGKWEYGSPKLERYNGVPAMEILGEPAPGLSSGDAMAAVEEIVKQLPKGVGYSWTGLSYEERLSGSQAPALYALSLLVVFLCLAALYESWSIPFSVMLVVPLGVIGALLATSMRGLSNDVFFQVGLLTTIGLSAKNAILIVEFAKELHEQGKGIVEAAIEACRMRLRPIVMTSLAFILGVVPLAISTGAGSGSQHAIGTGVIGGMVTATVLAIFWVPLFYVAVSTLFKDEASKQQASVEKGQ

Assay [3] deals with T3, MexAB_(D407N): MexA (palmitoylated) and the inactive MexB D407N mutant reconstituted together in biotinylated … (Pseudomonas aeruginosa, UniProt P52477 24-383; P52002 1-1046, D407N, palmitoylated (lipid anchor); residue not stated).
T3 construct: MexA, Pseudomonas aeruginosa, palmitoylated version; as m1; also called MexA and MexB_(D407N); source: reconstituted together in proteoliposomes with biotinylated lipids
T3 sequence (looked up) 1: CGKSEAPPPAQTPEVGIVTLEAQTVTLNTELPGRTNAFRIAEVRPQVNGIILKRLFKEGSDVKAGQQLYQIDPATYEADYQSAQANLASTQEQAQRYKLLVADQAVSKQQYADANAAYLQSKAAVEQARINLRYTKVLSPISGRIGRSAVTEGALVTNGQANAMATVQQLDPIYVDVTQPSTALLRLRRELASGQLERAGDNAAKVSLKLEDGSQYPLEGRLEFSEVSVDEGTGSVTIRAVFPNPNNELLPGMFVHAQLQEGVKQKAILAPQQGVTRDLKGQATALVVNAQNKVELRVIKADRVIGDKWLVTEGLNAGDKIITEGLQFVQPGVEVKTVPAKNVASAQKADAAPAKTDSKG
T3 sequence (looked up) 2: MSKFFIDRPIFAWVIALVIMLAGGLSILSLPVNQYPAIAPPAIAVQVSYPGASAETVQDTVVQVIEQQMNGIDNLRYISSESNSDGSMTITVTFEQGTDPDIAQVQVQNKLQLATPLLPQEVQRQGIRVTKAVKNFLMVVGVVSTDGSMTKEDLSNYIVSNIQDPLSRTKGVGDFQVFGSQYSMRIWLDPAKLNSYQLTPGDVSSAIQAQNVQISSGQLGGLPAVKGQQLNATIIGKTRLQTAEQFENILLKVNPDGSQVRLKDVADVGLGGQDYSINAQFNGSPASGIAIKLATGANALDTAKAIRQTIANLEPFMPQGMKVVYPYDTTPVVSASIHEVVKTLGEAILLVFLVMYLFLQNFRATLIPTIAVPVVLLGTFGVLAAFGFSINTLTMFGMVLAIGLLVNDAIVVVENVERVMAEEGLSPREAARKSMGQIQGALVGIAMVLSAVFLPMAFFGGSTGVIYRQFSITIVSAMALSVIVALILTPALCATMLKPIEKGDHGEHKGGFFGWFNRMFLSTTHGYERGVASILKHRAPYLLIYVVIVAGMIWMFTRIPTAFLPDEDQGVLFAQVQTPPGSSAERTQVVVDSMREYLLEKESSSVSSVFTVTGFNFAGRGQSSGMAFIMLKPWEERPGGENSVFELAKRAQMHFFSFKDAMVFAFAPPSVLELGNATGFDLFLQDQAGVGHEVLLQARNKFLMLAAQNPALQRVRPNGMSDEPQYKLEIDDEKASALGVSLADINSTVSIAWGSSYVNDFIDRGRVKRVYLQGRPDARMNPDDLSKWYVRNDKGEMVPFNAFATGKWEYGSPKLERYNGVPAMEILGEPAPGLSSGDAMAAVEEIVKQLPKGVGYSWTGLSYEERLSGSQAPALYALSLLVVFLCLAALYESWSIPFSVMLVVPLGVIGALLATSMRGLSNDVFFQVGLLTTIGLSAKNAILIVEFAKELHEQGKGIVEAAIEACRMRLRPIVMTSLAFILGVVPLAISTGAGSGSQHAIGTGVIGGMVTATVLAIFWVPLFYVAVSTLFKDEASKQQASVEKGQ

B1: MexAnp, truncated "cysteine-less" form of MexA without its first 24 residues (non-palmitoylated, soluble) (domain or fragment)
chain: GKSEAPPPAQTPEVGIVTLEAQTVTLNTELPGRTNAFRIAEVRPQVNGIILKRLFKEGSDVKAGQQLYQIDPATYEADYQSAQANLASTQEQAQRYKLLVADQAVSKQQYADANAAYLQSKAAVEQARINLRYTKVLSPISGRIGRSAVTEGALVTNGQANAMATVQQLDPIYVDVTQPSTALLRLRRELASGQLERAGDNAAKVSLKLEDGSQYPLEGRLEFSEVSVDEGTGSVTIRAVFPNPNNELLPGMFVHAQLQEGVKQKAILAPQQGVTRDLKGQATALVVNAQNKVELRVIKADRVIGDKWLVTEGLNAGDKIITEGLQFVQPGVEVKTVPAKNVASAQKADAAPAKTDSKG
notes: MexA, Pseudomonas aeruginosa, without its first 24 residues; non-palmitoylated, soluble; no point mutation is printed; also called soluble version of MexA; soluble MexA; source: generated in the laboratory, produced and purified
In the case of B1, the binding result in assay [1] is “binds”.

B2: OprM (natural protein)
chain: CSLIPDYQRPEAPVAAAYPQGQAYGQNTGAAAVPAADIGWREFFRDPQLQQLIGVALENNRDLRVAALNVEAFRAQYRIQRADLFPRIGVDGSGTRQRLPGDLSTTGSPAISSQYGVTLGTTAWELDLFGRLRSLRDQALEQYLATEQAQRSAQTTLVASVATAYLTLKADQAQLQLTKDTLGTYQKSFDLTQRSYDVGVASALDLRQAQTAVEGARATLAQYTRLVAQDQNALVLLLGSGIPANLPQGLGLDQTLLTEVPAGLPSDLLQRRPDILEAEHQLMAANASIGAARAAFFPSISLTANAGTMSRQLSGLFDAGSGSWLFQPSINLPIFTAGSLRASLDYAKIQKDINVAQYEKAIQTAFQEVADGLAARGTFTEQLQAQRDLVKASDEYYQLADKRYRTGVDNYLTLLDAQRSLFTAQQQLITDRLNQLTSEVNLYKALGGGWNQQTVTQQQTAKKEDPQA
notes: OprM, outer membrane channel of the MexA-MexB-OprM efflux pump, Pseudomonas aeruginosa; Purified by the protocol of Phan et al., 2010 with minor modifications; also called OMF; OprM proteoliposomes
For B2, the binding result in assay [2] and in assay [3] was “binds” in each case.
